This assay addresses CD4 (human) (UniProt P01730). As to the kind of experiment: cell-based or functional assay.

As for “HIV-1 envelope glycoprotein (Env) (from UniProt P04578 33-856)”, the transduction (mNeonGreen+) of CD4+ cells in a mixture of CD4+ and CD8+ primary human T cells treated with Env-Cas9-VLPs, highest treatment dose turned out to be 53.2%.

Values taken from patent US20260146247A1.
